# Test results published in patent publication US20210032299A1 (Eli Lilly, published 2021).
# Starred links: 1 amine or outer side, 2 acyl side, 3 side chain; linkers in the order of their positions; H or OH if unused. Non-standard residues stand in square brackets, D forms with d. Groups on a side chain read outwards from the residue. No end group written: not given here. *: point of attachment. C20 diacid = O=C(O)CCCCCCCCCCCCCCCCCCC(=O)*; γGlu = O=C(O)[C@H](CCC(=O)[*:2])N[*:1]; αMeY = C[C@](N)(Cc1ccc(O)cc1)C(=O)O; 4Pal = N[C@@H](Cc1ccncc1)C(=O)O; αMeL = CC(C)C[C@](C)(N)C(=O)O; AEEA = NCCOCCOCC(=O)O; Aib = CC(C)(N)C(=O)O
# T1: human glucose-dependent insulinotropic peptide receptor (human, UniProt P48546 22-466)
# T1 sequence (looked up): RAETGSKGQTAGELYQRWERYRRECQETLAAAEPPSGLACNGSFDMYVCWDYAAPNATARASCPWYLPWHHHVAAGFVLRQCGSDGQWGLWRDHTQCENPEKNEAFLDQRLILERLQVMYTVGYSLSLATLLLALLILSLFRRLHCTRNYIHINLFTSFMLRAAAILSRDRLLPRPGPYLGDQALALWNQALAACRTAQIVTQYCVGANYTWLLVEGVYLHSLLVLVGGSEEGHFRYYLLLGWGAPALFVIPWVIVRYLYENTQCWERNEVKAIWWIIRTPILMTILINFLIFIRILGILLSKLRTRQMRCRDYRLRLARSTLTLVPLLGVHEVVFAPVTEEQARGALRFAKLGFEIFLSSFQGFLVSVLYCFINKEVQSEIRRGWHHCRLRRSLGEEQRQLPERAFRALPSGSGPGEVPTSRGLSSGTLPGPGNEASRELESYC
# B1: Example 91 (peptide)
# peptide: Y[Aib]EGTFISDYSI[αMeL]LDKK([AEEA-AEEA-γGlu-C20 diacid])HQ[Aib]DFVE[αMeY]LLEGGPSSGAPPPS-NH2
# modifications: N-terminus assumed
# SMILES: CC[C@H](C)[C@H](NC(=O)[C@H](Cc1ccccc1)NC(=O)[C@@H](NC(=O)CNC(=O)[C@H](CCC(=O)O)NC(=O)C(C)(C)NC(=O)[C@@H](N)Cc1ccc(O)cc1)[C@@H](C)O)C(=O)N[C@@H](CO)C(=O)N[C@@H](CC(=O)O)C(=O)N[C@@H](Cc1ccc(O)cc1)C(=O)N[C@@H](CO)C(=O)N[C@H](C(=O)N[C@@](C)(CC(C)C)C(=O)N[C@@H](CC(C)C)C(=O)N[C@@H](CC(=O)O)C(=O)N[C@@H](CCCCN)C(=O)N[C@@H](CCCCNC(=O)COCCOCCNC(=O)COCCOCCNC(=O)CC[C@H](NC(=O)CCCCCCCCCCCCCCCCCCC(=O)O)C(=O)O)C(=O)N[C@@H](Cc1c[nH]cn1)C(=O)N[C@@H](CCC(N)=O)C(=O)NC(C)(C)C(=O)N[C@@H](CC(=O)O)C(=O)N[C@@H](Cc1ccccc1)C(=O)N[C@H](C(=O)N[C@@H](CCC(=O)O)C(=O)N[C@@](C)(Cc1ccc(O)cc1)C(=O)N[C@@H](CC(C)C)C(=O)N[C@@H](CC(C)C)C(=O)N[C@@H](CCC(=O)O)C(=O)NCC(=O)NCC(=O)N1CCC[C@H]1C(=O)N[C@@H](CO)C(=O)N[C@@H](CO)C(=O)NCC(=O)N[C@@H](C)C(=O)N1CCC[C@H]1C(=O)N1CCC[C@H]1C(=O)N1CCC[C@H]1C(=O)N[C@@H](CO)C(N)=O)C(C)C)[C@@H](C)CC
# B2: Example 89 (peptide)
# peptide: Y[Aib]EGTLISDYSI[αMeL]LDKK([AEEA-AEEA-γGlu-C20 diacid])HQ[Aib]DFVE[4Pal]LLEAGPSSGAPPPS-NH2
# modifications: N-terminus assumed
# SMILES: CC[C@H](C)[C@H](NC(=O)[C@H](CC(C)C)NC(=O)[C@@H](NC(=O)CNC(=O)[C@H](CCC(=O)O)NC(=O)C(C)(C)NC(=O)[C@@H](N)Cc1ccc(O)cc1)[C@@H](C)O)C(=O)N[C@@H](CO)C(=O)N[C@@H](CC(=O)O)C(=O)N[C@@H](Cc1ccc(O)cc1)C(=O)N[C@@H](CO)C(=O)N[C@H](C(=O)N[C@@](C)(CC(C)C)C(=O)N[C@@H](CC(C)C)C(=O)N[C@@H](CC(=O)O)C(=O)N[C@@H](CCCCN)C(=O)N[C@@H](CCCCNC(=O)COCCOCCNC(=O)COCCOCCNC(=O)CC[C@H](NC(=O)CCCCCCCCCCCCCCCCCCC(=O)O)C(=O)O)C(=O)N[C@@H](Cc1c[nH]cn1)C(=O)N[C@@H](CCC(N)=O)C(=O)NC(C)(C)C(=O)N[C@@H](CC(=O)O)C(=O)N[C@@H](Cc1ccccc1)C(=O)N[C@H](C(=O)N[C@@H](CCC(=O)O)C(=O)N[C@@H](Cc1ccncc1)C(=O)N[C@@H](CC(C)C)C(=O)N[C@@H](CC(C)C)C(=O)N[C@@H](CCC(=O)O)C(=O)N[C@@H](C)C(=O)NCC(=O)N1CCC[C@H]1C(=O)N[C@@H](CO)C(=O)N[C@@H](CO)C(=O)NCC(=O)N[C@@H](C)C(=O)N1CCC[C@H]1C(=O)N1CCC[C@H]1C(=O)N1CCC[C@H]1C(=O)N[C@@H](CO)C(N)=O)C(C)C)[C@@H](C)CC
# B3: Example 88 (peptide)
# peptide: YXEGTXISDYSIXLDKKHQXDFVEXLLEAGPSSGAPPPS
# modifications: Aib2; Iva6; αMeL13; K17((2-[2-(2-Amino-ethoxy)-ethoxy]-acetyl)2-(γ-Glu)-CO-(CH2)18-CO2H); Aib20; 4-Pal25; C-terminal amide
# B4: Example 90 (peptide)
# peptide: Y[Aib]EGTFISDYSI[αMeL]LDKK([AEEA-AEEA-γGlu-C20 diacid])HQ[Aib]DFVE[αMeY]LLEAGPSSGAPPPS-NH2
# modifications: N-terminus assumed
# SMILES: CC[C@H](C)[C@H](NC(=O)[C@H](Cc1ccccc1)NC(=O)[C@@H](NC(=O)CNC(=O)[C@H](CCC(=O)O)NC(=O)C(C)(C)NC(=O)[C@@H](N)Cc1ccc(O)cc1)[C@@H](C)O)C(=O)N[C@@H](CO)C(=O)N[C@@H](CC(=O)O)C(=O)N[C@@H](Cc1ccc(O)cc1)C(=O)N[C@@H](CO)C(=O)N[C@H](C(=O)N[C@@](C)(CC(C)C)C(=O)N[C@@H](CC(C)C)C(=O)N[C@@H](CC(=O)O)C(=O)N[C@@H](CCCCN)C(=O)N[C@@H](CCCCNC(=O)COCCOCCNC(=O)COCCOCCNC(=O)CC[C@H](NC(=O)CCCCCCCCCCCCCCCCCCC(=O)O)C(=O)O)C(=O)N[C@@H](Cc1c[nH]cn1)C(=O)N[C@@H](CCC(N)=O)C(=O)NC(C)(C)C(=O)N[C@@H](CC(=O)O)C(=O)N[C@@H](Cc1ccccc1)C(=O)N[C@H](C(=O)N[C@@H](CCC(=O)O)C(=O)N[C@@](C)(Cc1ccc(O)cc1)C(=O)N[C@@H](CC(C)C)C(=O)N[C@@H](CC(C)C)C(=O)N[C@@H](CCC(=O)O)C(=O)N[C@@H](C)C(=O)NCC(=O)N1CCC[C@H]1C(=O)N[C@@H](CO)C(=O)N[C@@H](CO)C(=O)NCC(=O)N[C@@H](C)C(=O)N1CCC[C@H]1C(=O)N1CCC[C@H]1C(=O)N1CCC[C@H]1C(=O)N[C@@H](CO)C(N)=O)C(C)C)[C@@H](C)CC
# B5: Example 85 (peptide)
# peptide: Y[Aib]EGTFISDYSI[αMeL]LDEK([AEEA-AEEA-γGlu-C20 diacid])HQ[Aib]DFVE[4Pal]LLAAGPSSGAPPPS-NH2
# modifications: N-terminus assumed
# SMILES: CC[C@H](C)[C@H](NC(=O)[C@H](Cc1ccccc1)NC(=O)[C@@H](NC(=O)CNC(=O)[C@H](CCC(=O)O)NC(=O)C(C)(C)NC(=O)[C@@H](N)Cc1ccc(O)cc1)[C@@H](C)O)C(=O)N[C@@H](CO)C(=O)N[C@@H](CC(=O)O)C(=O)N[C@@H](Cc1ccc(O)cc1)C(=O)N[C@@H](CO)C(=O)N[C@H](C(=O)N[C@@](C)(CC(C)C)C(=O)N[C@@H](CC(C)C)C(=O)N[C@@H](CC(=O)O)C(=O)N[C@@H](CCC(=O)O)C(=O)N[C@@H](CCCCNC(=O)COCCOCCNC(=O)COCCOCCNC(=O)CC[C@H](NC(=O)CCCCCCCCCCCCCCCCCCC(=O)O)C(=O)O)C(=O)N[C@@H](Cc1c[nH]cn1)C(=O)N[C@@H](CCC(N)=O)C(=O)NC(C)(C)C(=O)N[C@@H](CC(=O)O)C(=O)N[C@@H](Cc1ccccc1)C(=O)N[C@H](C(=O)N[C@@H](CCC(=O)O)C(=O)N[C@@H](Cc1ccncc1)C(=O)N[C@@H](CC(C)C)C(=O)N[C@@H](CC(C)C)C(=O)N[C@@H](C)C(=O)N[C@@H](C)C(=O)NCC(=O)N1CCC[C@H]1C(=O)N[C@@H](CO)C(=O)N[C@@H](CO)C(=O)NCC(=O)N[C@@H](C)C(=O)N1CCC[C@H]1C(=O)N1CCC[C@H]1C(=O)N1CCC[C@H]1C(=O)N[C@@H](CO)C(N)=O)C(C)C)[C@@H](C)CC
# B6: Example 86 (peptide)
# peptide: Y[Aib]EGTFISDYSI[αMeL]LDEK([AEEA-AEEA-γGlu-C20 diacid])HQ[Aib]DFVE[4Pal]LLAGGPSSGAPPPS-NH2
# modifications: N-terminus assumed
# SMILES: CC[C@H](C)[C@H](NC(=O)[C@H](Cc1ccccc1)NC(=O)[C@@H](NC(=O)CNC(=O)[C@H](CCC(=O)O)NC(=O)C(C)(C)NC(=O)[C@@H](N)Cc1ccc(O)cc1)[C@@H](C)O)C(=O)N[C@@H](CO)C(=O)N[C@@H](CC(=O)O)C(=O)N[C@@H](Cc1ccc(O)cc1)C(=O)N[C@@H](CO)C(=O)N[C@H](C(=O)N[C@@](C)(CC(C)C)C(=O)N[C@@H](CC(C)C)C(=O)N[C@@H](CC(=O)O)C(=O)N[C@@H](CCC(=O)O)C(=O)N[C@@H](CCCCNC(=O)COCCOCCNC(=O)COCCOCCNC(=O)CC[C@H](NC(=O)CCCCCCCCCCCCCCCCCCC(=O)O)C(=O)O)C(=O)N[C@@H](Cc1c[nH]cn1)C(=O)N[C@@H](CCC(N)=O)C(=O)NC(C)(C)C(=O)N[C@@H](CC(=O)O)C(=O)N[C@@H](Cc1ccccc1)C(=O)N[C@H](C(=O)N[C@@H](CCC(=O)O)C(=O)N[C@@H](Cc1ccncc1)C(=O)N[C@@H](CC(C)C)C(=O)N[C@@H](CC(C)C)C(=O)N[C@@H](C)C(=O)NCC(=O)NCC(=O)N1CCC[C@H]1C(=O)N[C@@H](CO)C(=O)N[C@@H](CO)C(=O)NCC(=O)N[C@@H](C)C(=O)N1CCC[C@H]1C(=O)N1CCC[C@H]1C(=O)N1CCC[C@H]1C(=O)N[C@@H](CO)C(N)=O)C(C)C)[C@@H](C)CC
# Target: human glucagon receptor (human, UniProt P47871 26-477)
# Assay: cell-based or functional assay
# Chain of human glucagon receptor (P47871 26-477): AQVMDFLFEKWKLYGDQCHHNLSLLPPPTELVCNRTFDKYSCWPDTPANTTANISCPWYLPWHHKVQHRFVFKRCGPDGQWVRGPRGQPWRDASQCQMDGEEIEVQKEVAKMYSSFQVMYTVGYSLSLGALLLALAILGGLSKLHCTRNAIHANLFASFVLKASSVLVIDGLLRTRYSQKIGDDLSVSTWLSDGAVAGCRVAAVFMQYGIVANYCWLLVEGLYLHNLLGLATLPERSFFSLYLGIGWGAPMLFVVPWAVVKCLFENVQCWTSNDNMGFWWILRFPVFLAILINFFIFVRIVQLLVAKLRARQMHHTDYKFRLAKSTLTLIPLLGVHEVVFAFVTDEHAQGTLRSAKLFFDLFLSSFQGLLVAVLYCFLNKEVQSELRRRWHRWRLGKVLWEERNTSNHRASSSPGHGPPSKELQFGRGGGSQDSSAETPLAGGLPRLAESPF
row,Binder,hGcgR cAMP Rel EC50 [nM]
1,B1,289
2,B2,> 5000
3,B3,1670
4,B4,> 5000
5,B5,> 5000
6,B6,> 5000

# Target: T1, human glucose-dependent insulinotropic …
# Assay: cell-based or functional assay
row,Binder,hGIPR cAMP Rel EC50 [nM]
1,B1,0.0321
2,B2,0.00687
3,B3,0.0031
4,B4,0.0272
5,B5,0.0359
6,B6,0.03

# Target: human GLP-1 receptor (human, UniProt P43220 24-463)
# Assay: cell-based or functional assay
row,Binder,hGLP1R cAMP Rel EC50 [nM]
1,B1,530
2,B2,> 5000
3,B3,> 5000
4,B4,> 5000
5,B5,> 5000
6,B6,> 5000
